Consider two variants from IntAct's records for PubMed 12646039.

The chains are these.
B1: E3 ubiquitin-protein ligase RHA2A (Arabidopsis thaliana (Mouse-ear cress)), Q9ZT50 (parent)
chain: MGLQGQLSDVSSDSIPLMLLSLLAVFINHLRSFLLRLTSKSNPNLPVDDVSIASGLANIIVLADQLSLNRLFSYRCGDGGGGGSDCVVCLSKLKEGEEVRKLECRHVFHKKCLEGWLHQFNFTCPLCRSALVSDDCVSKTQRSVGRDLISCFSLH
partner: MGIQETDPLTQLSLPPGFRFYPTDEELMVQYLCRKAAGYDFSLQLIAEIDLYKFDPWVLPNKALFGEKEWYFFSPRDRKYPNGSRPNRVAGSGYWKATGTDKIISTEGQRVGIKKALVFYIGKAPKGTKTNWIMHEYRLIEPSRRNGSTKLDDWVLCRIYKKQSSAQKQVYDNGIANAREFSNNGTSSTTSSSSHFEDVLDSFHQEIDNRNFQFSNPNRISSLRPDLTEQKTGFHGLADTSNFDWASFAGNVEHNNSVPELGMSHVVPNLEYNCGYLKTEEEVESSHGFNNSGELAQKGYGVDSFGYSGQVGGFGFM

Variants of B1 are the subject of the experiment. Conditions: with nac19_arath NAC019, Q9C932.
In the case of E103P, the “effect of a mutation on the interaction” value is “decreasing interaction”.

Take C89S: the “effect of a mutation on the interaction” value was “decreasing interaction”.
